Laboratory results reported in US20250018037A1 (SEOUL NATIONAL UNIVERSITY R AND DB FOUNDATION, published 2025).

T1: Recombinant mouse CD40-Fc (1215-CD, R&D systems) (mouse, UniProt P27512 24-193, limits assumed)
T1 construct: Bought protein; also called recombinant CD40 protein
T1 sequence (looked up): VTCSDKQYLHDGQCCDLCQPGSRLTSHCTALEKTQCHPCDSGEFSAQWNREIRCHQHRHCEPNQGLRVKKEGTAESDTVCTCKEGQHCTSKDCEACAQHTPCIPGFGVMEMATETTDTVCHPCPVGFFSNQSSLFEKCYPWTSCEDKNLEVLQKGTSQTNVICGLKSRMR

T2: Human CS1-Fc fusion protein (CS1 ectodomain S23~M226 with C-terminal human IgG1 Fc) (human, UniProt Q9NQ25 23-226)
T2 construct: range 23-226; Made in-house in Expi293 cells; also called recombinant CS1-Fc fusion protein; not shown: C-terminal human IgG1 Fc
T2 sequence (looked up): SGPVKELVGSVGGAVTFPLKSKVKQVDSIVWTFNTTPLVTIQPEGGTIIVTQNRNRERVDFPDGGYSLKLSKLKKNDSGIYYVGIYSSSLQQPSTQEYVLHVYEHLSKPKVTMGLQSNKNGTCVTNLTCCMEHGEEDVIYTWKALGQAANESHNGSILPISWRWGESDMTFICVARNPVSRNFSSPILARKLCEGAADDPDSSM


Key:
[1] = target: Mouse CD40 on cells (A20 lymphoma cells, EL4-mCD40 cells, peritoneal macrophages, splenic dendritic cells) (mouse) (UniProt P27512); test: flow cytometry on A20 cells, anti-human Ck-APC (axis hCk); negative control
Chain of Mouse CD40 on cells (A20 lymphoma cells, EL4-mCD40 cells, peritoneal macrophages, splenic dendritic cells) (mouse) (P27512 20-289): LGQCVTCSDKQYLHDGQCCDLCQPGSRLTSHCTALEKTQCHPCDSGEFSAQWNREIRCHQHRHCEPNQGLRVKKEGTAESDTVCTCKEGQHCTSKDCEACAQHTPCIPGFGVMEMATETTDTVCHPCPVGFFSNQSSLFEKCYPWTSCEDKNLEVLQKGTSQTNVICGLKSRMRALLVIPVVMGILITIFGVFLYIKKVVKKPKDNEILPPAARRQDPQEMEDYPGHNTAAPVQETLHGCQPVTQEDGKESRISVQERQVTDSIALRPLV

[2] = target: T3, Human CD40 on cells (Raji, Daudi, IM-9) (human, UniProt P25942 21-277); test: flow cytometry on Raji cells, 1 ug/1x10^5 cells, anti-human Ck-APC (axis hCk); negative control
T3 construct: whole, on cells; also called cell surface CD40; hCD40
T3 sequence (P25942 21-277): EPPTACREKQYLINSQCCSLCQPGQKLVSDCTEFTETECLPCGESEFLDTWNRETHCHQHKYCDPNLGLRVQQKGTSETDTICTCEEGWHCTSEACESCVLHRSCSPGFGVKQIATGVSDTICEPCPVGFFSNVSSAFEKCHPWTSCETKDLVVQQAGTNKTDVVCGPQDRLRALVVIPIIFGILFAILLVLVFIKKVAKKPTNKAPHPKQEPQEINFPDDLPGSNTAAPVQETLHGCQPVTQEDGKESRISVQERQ

[3] = target: T1, Recombinant mouse CD40-Fc (1215-CD, R&D …); test: ELISA, mouse CD40-Fc coated at 2.5 ug/ml, serial dilutions 0.0001 to 1000 nM, anti-human Ck-HRP, absorbance 450 nm
Description: FIG. 8A: Recombinant mouse CD40-Fc (2.5 μg/ml) was coated in ELISA plate and the serial diluents of C1C02-Cκ or the irrelevant scFv-Cκ were loaded. The bound scFv-Cκs were detected by a secondary anti-human Cκ-HRP followed by a chromogenic reaction with TMB substrate. The absorbance was measured at 450 nm. […] FIG. 8B: A20, a CD40-expressing mouse B lymphoma cell line, was stained with C1C02-Cκ (1 μg/1×10⁵ cells) or the irrelevant scFv-Cκ and then stained with a secondary anti-human Cκ-APC. The binding intensity of the scFv-Cκs was analyzed by flow cytometry. The numbers are the mean fluorescence intensities (MFIs) of the binding.
(§1) White leghorn chickens were immunized four times with recombinant mouse CD40 (50324-M08H, Sino Biological, China) or human CD40 (10774-H08H, Sino Biological) protein. Total RNA from the bursa of Fabricius, spleen, and bone marrow was isolated using TRIzol reagent (Invitrogen, USA), and cDNA was synthesized using a SuperScript III first-strand cDNA synthesis kit with oligo (dT) primers (Invitrogen) according to the manufacturer's instructions. The scFv phage-display libraries were constructed from the cDNAs as described previously⁵¹. […] The binding of the scFv-Cκs was measured with the secondary antibody (anti-human Cκ-HRP; AP502P, Sigma-Aldrich, USA).

[4] = target: T4, Recombinant human CD40-Fc (1493-CDB, R&D systems) (human, UniProt P25942 21-193); test: ELISA, human CD40-Fc coated at 2.5 ug/ml, serial dilutions 0.0001 to 1000 nM, anti-human Ck-HRP, absorbance 450 nm
T4 construct: Bought protein; also called human CD40 recombinant proteins
T4 sequence (P25942 21-193 limits assumed): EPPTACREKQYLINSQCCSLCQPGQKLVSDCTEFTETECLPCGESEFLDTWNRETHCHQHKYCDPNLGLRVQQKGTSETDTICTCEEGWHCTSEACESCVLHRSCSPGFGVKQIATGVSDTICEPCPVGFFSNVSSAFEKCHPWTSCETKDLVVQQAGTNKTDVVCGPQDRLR
Description: FIG. 13A: Recombinant human CD40-Fc (2.5 μg/ml) was coated in ELISA plate and the serial diluents of 2B1-Ck, 2E1-Ck and irrelevant scFv antibody-Ck were loaded. The bound scFv-Cκs were detected by a secondary anti-human Cκ-HRP followed by chromogenic reaction with TMB substrate. The absorbance was measured at 450 nm. […] FIG. 13B: Raji, a CD40-expressing human B lymphoma cell line, was stained with 2B1-Ck, 2E1-Ck or the irrelevant scFv-Cκ (1 μg/1×10⁵ cells), and then stained with secondary anti-human Ck-APC. The binding intensity of the scFv-Cκs were analyzed by flow cytometry. The numbers are mean fluorescence intensities (MFIs) of the binding.
as §1

[5] = target: T2, Human CS1-Fc fusion protein (CS1 …); test: serial dilution ELISA of purified scFv-Cκ-His on coated hCS1-Fc, OD at 405 nm, detection with anti-human Cκ-HRP
Description: (§2) FIGS. 20A-C The individual specific binders are screened by ELISA and 23 different scFv clones were further characterized by sequencing. FIG. 20A: Reactivity of the selected scFv clones to human CS1 was assayed by measuring absorbance at 405 nm. The individual scFv clones were reactive to human CS1-His (▪) and human CS1-Fc ( ), but not hFc ( ) or BSA (□).Binding activity determination of selected clones specific to human CS1. The three clones selected from the phage ELISA were verified in a serial dilution ELISA after expression and purification as a form of scFv-Cκ-His. The y-axis of the graphs depicts the signal for serial dilutions of the antibodies, and the x-axis depicts the antibody concentration in the wells of the dilution series. The binding to human CS1-Fc is indicated as red, while the binding to BSA is indicated as blue. […] FIG. 20B: Binding activity of anti-human CS1 cFv-Cκ-His on J558/CS1 or J558 cells measured using flow cytometry. […] Binding of scFv adapters were detected by adding APC conjugated anti-human Cκ antibodies or APC conjugated anti-His tag secondary antibodies. FIG. 20C: Binding activity of anti-human CS1 scFv-Cκ-His on MM1.s cells measured using flow cytometry. Binding of the antibodies were detected by adding either an APC conjugated anti-human Cκ antibodies, or an APC conjugated anti-His tag secondary antibodies, respectively. […]

[6] = target: T5, BSA (bovine serum albumin) (bovine, UniProt P02769 25-607); test: serial dilution ELISA on wells with blocking only (the legend calls this the binding to BSA), OD at 405 nm
T5 construct: Control antigen in the phage ELISA
T5 sequence (P02769 25-607 limits assumed): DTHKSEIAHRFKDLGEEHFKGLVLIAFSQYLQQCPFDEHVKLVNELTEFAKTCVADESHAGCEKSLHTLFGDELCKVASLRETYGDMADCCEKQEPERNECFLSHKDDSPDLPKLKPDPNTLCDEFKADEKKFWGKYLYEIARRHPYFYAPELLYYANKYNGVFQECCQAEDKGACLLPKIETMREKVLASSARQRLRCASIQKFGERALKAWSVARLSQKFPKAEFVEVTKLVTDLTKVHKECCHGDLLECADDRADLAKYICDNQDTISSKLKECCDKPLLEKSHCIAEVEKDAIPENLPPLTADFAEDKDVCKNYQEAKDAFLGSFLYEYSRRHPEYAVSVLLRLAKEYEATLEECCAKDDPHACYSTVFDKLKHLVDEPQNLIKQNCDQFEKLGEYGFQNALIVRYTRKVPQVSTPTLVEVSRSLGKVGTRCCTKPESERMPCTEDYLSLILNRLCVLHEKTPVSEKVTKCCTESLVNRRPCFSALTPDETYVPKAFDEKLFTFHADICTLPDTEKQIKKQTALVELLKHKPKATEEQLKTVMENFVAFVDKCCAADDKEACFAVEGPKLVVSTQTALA
Description: as §2

Molecule | EC50 [4] | EC50 [5] | binding result [6] | further results
Irrelevant Ab-Ck (scFv) | – | – | – | MFI [1]: 24.6; MFI [2]: 3.78
C1C02-Cκ (anti-mouse CD40 scFv clone C1C02 fused with human immunoglobulin kappa light chain constant region) (scFv, also called C1C02 scFv; anti-mouse CD40 antibody (clone C1C02)) scFv: QAALTQPSSVSANPGETVKITCSGGSSNYGWYQQKSPGSAPATVIYDNTNRPSDIPSRFSGALSGSTATLTITGVQVEDEAVYYCGGYDSGTYAGIFGAGTTLTVLGQSSRSSGGGGSSGGGGSAVTLDESGGGLQTPGGTLSLACKGSGFTFSSVNMQWVRQAPGKGLEWVAGISSDGSYTAYGAAVKGRATISRDNGQSTVRLQLNNLRAEDTAIYYCAKIAGGYYWDAAYSIDMWGHGTEVIVSSTSGQAGQRTVAAPSVFIFPPSDEQLKSGTASVVCLLNNFYPREAKVQWKVDNALQSGNSQESVTEQDSKDSTYSLSSTLTLSKADYEKHKVYACEVTHQGLSSPVTKSFNRGES | – | – | – | EC50 [3]: 1.28 nM
2B1-Cκ (anti-human CD40 scFv clone 2B1 fused with human Cκ) (scFv, also called 2B1-Ck; free 2B1) scFv: QAALTQPSSVSANPGETVKITCSGGDSYAGSYYYGWFQQKAPGSAPVTVIYYNDKRPSDIPSRFSGSTSGSTSTLTITGVQAEDEAVYYCGSIDTSSGTGIFGAGTTLTVLGQSSRSSGGGGSSGGGGSAVTLDESGGGLQTPGGALSLVCKGSGFTFSSYQMFWVRQAPGKGLEYVAEISGSGLSTWYAPAVKGRATISRDNGQSTVRLQLNNLRAEDTGTYYCAKAAGSCGVGTCAGGIVDGIDAWGHGTEVIVSSTSGQAGQRTVAAPSVFIFPPSDEQLKSGTASVVCLLNNFYPREAKVQWKVDNALQSGNSQESVTEQDSKDSTYSLSSTLTLSKADYEKHKVYACEVTHQGLSSPVTKSFNRGES | 0.365 nM | – | – | –
2E1-Cκ (anti-human CD40 scFv clone 2E1 fused with human Cκ) (scFv, also called 2E1-Ck) scFv: QAALTQPSSVSANPGETVKITCSGSSSSYYGWYQQKAPGSAPVTLIYANDKRPSDIPSRFSGSKSGSTHTLTITGVQADDEAVYFCGSADSTDSGFGAGTTLTVLGQSSRSSGGGGSSGGGGSAVTLDESGGGLQTPGGALSLVCKASGFSFSSYSMHWVRQAPGKGLEFVAAISSDGSRYTHYGPAVKGRATISRDNGQSTVRLQLNNLRPEDTGTYYCAKTSNTWTWNTGWIDAWGHGTEVIVSSTSGQAGQRTVAAPSVFIFPPSDEQLKSGTASVVCLLNNFYPREAKVQWKVDNALQSGNSQESVTEQDSKDSTYSLSSTLTLSKADYEKHKVYACEVTHQGLSSPVTKSFNRGES | 1.06 nM | – | – | –
hCS1(#57)-Ck-His (anti-human CS1 scFv-Cκ-(G4S)2-6×His, clone #57) (scFv, also called #57 clone; His tagged CS1 adaptor) scFv: QAALTQPSSVSANLGETVKITCSGSSGNNYGWYQQKSPGSAPVTVIYYNDNRPSDIPSRFSGSKSGSTHTLTITGVQADDEAVYFCGSGDSSSNPGIFGAGTTLTVLGQSSRSSGGGGSSGGGGSAVTLDESGGGLQTPGGALSLVCKASGFTFSSHGMAWVRQAPGKGLEWVAGIDDSGSSTGYGSAVKGRATISRDNGQSTVRLQLNNLRAEDTGIYYCAKAYDTGCGWAGYNVYDCSADQIDAWGHGTEVIVSSTSGQAGQRTVAAPSVFIFPPSDEQLKSGTASVVCLLNNFYPREAKVQWKVDNALQSGNSQESVTEQDSKDSTYSLSSTLTLSKADYEKHKVYACEVTHQGLSSPVTKSFNRGESGGGGSGGGGSHHHHHH | – | 9.3 nM | no binding | –
hCS1(#87)-Ck-His (anti-human CS1 scFv-Cκ-(G4S)2-6×His, clone #87) (scFv, also called #87 clone; His tagged CS1 adaptor) scFv: QAALTQPSSVSANPGETVKITCSGGGSYYGWYQQKSPGSAPVTVIYGNDKRPSNIPSRFSGSKSGSTATLTITGVQVEDEAVYFCGGWDSTDAGTFGAGTTLTVLGQSSRSSGGGGSSGGGGSAVTLDESGGGLQTPGGGLSLVCKASGFTFSSHGMAWVRQAPGKGLEWVAGIDDSGSSTGYGSAVKGRATISRDNGQSTVRLQLNNLRAEDTGIYYCAKAYDTGCGWAGYNVYDCSADQIDAWGHGTEVIVSSTSGQAGQRTVAAPSVFIFPPSDEQLKSGTASVVCLLNNFYPREAKVQWKVDNALQSGNSQESVTEQDSKDSTYSLSSTLTLSKADYEKHKVYACEVTHQGLSSPVTKSFNRGESGGGGSGGGGSHHHHHH | – | 2.9 nM | no binding | –
